What is called Km is the substrate concentration at which the rate is half of its maximum. For orientation: kcat means the maximal rate divided by the concentration of active sites. Usually kcat/Km stands for the second-order rate constant that governs catalysis at low substrate concentration.

Holding throughout (assay type): biochemical
Series [1] concerns CC(C)C[C@H](N)C(=O)O. Put plainly: ATP-PPi exchange assay, WT LRS. To be noted: other: absence of tRNA^Leu (ATP-PPi exchange); pH 7.6; 37.0 °C. How it is done:
The ATP-PPi exchange reaction was performed in a reaction mixture containing 2 mM [^32P]pyrophosphate (PPi) (80.70 mCi/mL), 50 mM HEPES-KOH (pH 7.6), 2 mM MgCl2, 8 mM KF, 4 mM ATP, and various concentrations of leucine and 25 nM of LRS. Reaction were initiated with enzymes and conducted in a 37° C. heat block. Aliquots (10 ul) were taken at different time points, and the reactions were stopped using lml of quenching buffer (50 mM NaPPi, 3.5% HC1O4, 2% activated charcoal). The charcoal suspension was filtered through a Whatman GF/A filter, washed four times with 5 ml of water and rinsed with 10 ml of 100% ethanol. The charcoal powder on the filters was dried, and the synthesized [^32P]ATP was counted using a scintillation counter (Beckman Coulter).

In series [2] the test system is T1, CC(C)C[C@H](N)C(=O)O.
T1 construct: made in house
Put plainly: Leucylation assay, LRS F50A/Y52A mutant. The settings on record: other: LRS F50A/Y52, leucylation, substrate leucine; pH 7.6; 37.0 °C. How it is done: (§1) In FIG. 5b, leucylations by LRS WT and mutants (F50A/Y52A, F50A, and Y52A) were carried out by using 4 μM tRNALeu and 50 nM enzymes.
(§2) The leucylation assay was carried out in a buffer containing 1 mM spermine, 50 mM HEPES-KOH (pH7.6), 25 mM KCl, 5 mM MgCl2, 4 mM ATP, 2 mg/ml bovine liver tRNA^Leu, various concentrations of [^3H]Leu (60 Ci/mmol), and 10-100 nM of LRS. Reactions were initiated with enzyme and conducted in a 37° C. heat block. Aliquots (10 ul) were taken at different time points and quenched on Whatman filter pads that were presoaked with 5% trichloroacetic acid (TCA). The pads were washed three times for 10 min each with cold 5% TCA, and once with cold 100% ethanol. The washed pads were then dried. Radioactivity was quantified in a scintillation counter (Beckman Coulter)

For series [3], the system named is CC(C)C[C@H](N)C(=O)O. Put plainly: Leucylation assay, LRS WT. To be noted: pH 7.6, 37.0 °C. As to the method:
as §1, §2

[4] abbreviates: other: LRS WT, leucylation, substrate leucine.

Chain of LRS WT (Homo sapiens) (chain, as listed by the source): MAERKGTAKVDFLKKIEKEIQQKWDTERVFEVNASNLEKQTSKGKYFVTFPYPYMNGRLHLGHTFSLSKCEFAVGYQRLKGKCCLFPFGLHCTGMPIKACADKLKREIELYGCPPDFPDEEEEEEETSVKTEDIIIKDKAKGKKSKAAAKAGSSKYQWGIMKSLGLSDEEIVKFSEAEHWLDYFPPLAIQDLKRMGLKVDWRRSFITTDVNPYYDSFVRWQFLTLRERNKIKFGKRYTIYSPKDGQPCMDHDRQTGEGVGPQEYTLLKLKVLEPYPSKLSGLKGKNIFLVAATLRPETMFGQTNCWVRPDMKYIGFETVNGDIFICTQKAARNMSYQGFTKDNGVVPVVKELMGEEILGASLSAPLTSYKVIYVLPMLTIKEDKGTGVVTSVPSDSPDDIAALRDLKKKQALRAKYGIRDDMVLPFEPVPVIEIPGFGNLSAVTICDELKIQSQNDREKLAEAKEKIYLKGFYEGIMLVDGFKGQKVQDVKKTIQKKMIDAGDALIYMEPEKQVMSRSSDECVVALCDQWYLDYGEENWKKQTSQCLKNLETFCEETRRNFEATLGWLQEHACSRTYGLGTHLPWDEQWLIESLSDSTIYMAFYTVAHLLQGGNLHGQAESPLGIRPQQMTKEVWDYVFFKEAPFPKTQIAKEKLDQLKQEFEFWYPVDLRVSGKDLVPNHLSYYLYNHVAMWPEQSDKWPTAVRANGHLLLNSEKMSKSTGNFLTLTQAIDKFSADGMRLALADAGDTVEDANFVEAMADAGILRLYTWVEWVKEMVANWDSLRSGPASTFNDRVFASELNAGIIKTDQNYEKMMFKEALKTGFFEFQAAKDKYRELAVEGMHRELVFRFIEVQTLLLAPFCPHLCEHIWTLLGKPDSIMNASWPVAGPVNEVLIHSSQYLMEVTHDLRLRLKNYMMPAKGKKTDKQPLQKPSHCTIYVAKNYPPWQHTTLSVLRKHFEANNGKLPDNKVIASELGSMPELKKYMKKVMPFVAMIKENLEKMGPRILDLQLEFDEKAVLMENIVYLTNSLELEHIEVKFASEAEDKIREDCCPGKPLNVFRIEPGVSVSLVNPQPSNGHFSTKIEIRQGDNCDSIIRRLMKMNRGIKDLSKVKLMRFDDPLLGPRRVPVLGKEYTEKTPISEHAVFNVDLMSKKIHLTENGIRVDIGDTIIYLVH
Chain of LRS F50A/Y52 (Homo sapiens; F50A/Y52A) (chain, as listed by the source F50A F50A Y52A): as the sequence (chain, as listed by the source) above, with F50A, Y52A counted along it
Chain of LRS (Homo sapiens) (chain, as listed by the source): as the sequence (chain, as listed by the source) above

Regarding LRS (Homo sapiens), the Km with CC(C)C[C@H](N)C(=O)O [1] amounted to 143 ± 61 µM.
LRS F50A/Y52 (Homo sapiens; F50A/Y52A): in the series on CC(C)C[C@H](N)C(=O)O [2], the Km is listed as 0.536 ± 0.063 mM.
Consider LRS WT (Homo sapiens), for which, in the series on CC(C)C[C@H](N)C(=O)O [3] (setting [4]), the Km is 0.0159 ± 0.0004 mM, the kcat was 0.368 ± 0.009 s⁻¹ and the kcat/Km was found to be 22900 ± 570 M⁻¹ s⁻¹. For the same substance, the Km in the series on CC(C)C[C@H](N)C(=O)O [3] (other: presence of tRNA^Leu (leucylation)) is 0.0159 ± 0.0004 mM.

These data come from US9435807B2, “Use of leucyl tRNA synthetase” (Medicinal Bioconvergence Research Center, priority 2011, dated 2016).
